Reference: the Human Domainome abundance scans (Beltran et al. 2025)
± gives the uncertainty stated by the source.

B1: Syntaxin-binding protein 4, residues 493 to 538; numbered along this chain, Q6ZWJ1 (parent)
chain: LDMDCLPYGWEEAYTADGIKYFINHVTQTTSWIHPVMSVLNLSRSE

Variants of: B1
Test: abundance fitness (aPCA) (normalised: wild type 0, dead -1); higher = more abundant; growth selection in yeast, the domain comes from the species named
Conditions: Homo sapiens

Abundance fitness of substitutions, site by site:
E12: H -0.795 ± 0.17; L -0.804 ± 0.099; I -0.273 ± 0.13; S -0.619 ± 0.093; N -0.765 ± 0.19; C -0.496 ± 0.1; Y -0.794 ± 0.18; G -0.818 ± 0.083; Q -0.463 ± 0.12; P -0.795 ± 0.14; W -0.744 ± 0.1; A -0.767 ± 0.1; T -0.518 ± 0.1; F -0.801 ± 0.15; V 0.12 ± 0.08; D -0.89 ± 0.15; R -0.804 ± 0.081; M -0.361 ± 0.12; K -0.953 ± 0.13
A13: V -0.686 ± 0.084; H -1.01 ± 0.17; T -0.527 ± 0.11; Y -0.914 ± 0.21; C -0.676 ± 0.12; S -0.5 ± 0.088; N -0.774 ± 0.14; W -0.766 ± 0.11; K -0.534 ± 0.11; Q -0.677 ± 0.13; L -0.742 ± 0.091; P -0.922 ± 0.11; F -0.946 ± 0.19; I -0.998 ± 0.21; R -0.501 ± 0.08; G -0.746 ± 0.081; D -1.11 ± 0.18; E -0.923 ± 0.11
Y14: A -0.645 ± 0.09; P -1 ± 0.12; Q -0.305 ± 0.1; G -0.773 ± 0.087; L -0.689 ± 0.083; F -0.659 ± 0.14; W -0.271 ± 0.086; V -0.411 ± 0.08; C -0.586 ± 0.1; D -0.976 ± 0.14; K -0.907 ± 0.14; N -0.994 ± 0.17; R -0.389 ± 0.075; M -0.614 ± 0.1; H -0.575 ± 0.11; E -0.513 ± 0.11; T -0.522 ± 0.1; S -0.462 ± 0.08; I -0.856 ± 0.12
G9: F -0.926 ± 0.15; R -0.846 ± 0.088; C -0.892 ± 0.12; N -0.849 ± 0.14; W -0.699 ± 0.1; D -0.604 ± 0.086; P -0.397 ± 0.092; E -0.184 ± 0.088; Q -0.908 ± 0.13; I -0.459 ± 0.19; V -0.692 ± 0.081; H -0.86 ± 0.15; K -0.807 ± 0.11; L -0.636 ± 0.084; A -0.803 ± 0.087; T -0.833 ± 0.099; M -0.865 ± 0.12; Y -0.826 ± 0.14
T15: W -0.814 ± 0.096; D -0.509 ± 0.13; A -0.801 ± 0.1; E -0.859 ± 0.16; Y -0.65 ± 0.13; N -0.806 ± 0.14; V -0.862 ± 0.094; C -1 ± 0.14; H -0.881 ± 0.16; F -0.883 ± 0.14; Q -0.706 ± 0.1; K -0.938 ± 0.13; P -0.531 ± 0.093; I -0.772 ± 0.1; R -0.698 ± 0.077; S -0.672 ± 0.085; G -0.561 ± 0.082
E11: P -0.78 ± 0.11; M -0.793 ± 0.11; Y -0.909 ± 0.14; W -0.696 ± 0.09; L -0.771 ± 0.089; G -0.827 ± 0.082; T -0.733 ± 0.1; K -0.535 ± 0.11; A -0.747 ± 0.091; H -0.657 ± 0.15; I -0.502 ± 0.13; S -0.433 ± 0.081; C -0.861 ± 0.11; V -0.531 ± 0.083; R -0.537 ± 0.077; D -0.528 ± 0.11; Q -0.4 ± 0.097; F -0.555 ± 0.12
D17: A -0.69 ± 0.11; T -0.793 ± 0.12; N -0.548 ± 0.12; P -0.867 ± 0.12; C -0.873 ± 0.12; H -0.691 ± 0.18; I -0.63 ± 0.11; Q -0.571 ± 0.14; S -0.625 ± 0.09; R -0.697 ± 0.085; L -0.823 ± 0.093; M -0.88 ± 0.12; K -0.547 ± 0.1; G -0.76 ± 0.084; F -0.942 ± 0.14
A16: L -0.649 ± 0.09; D -0.029 ± 0.1; Y -0.606 ± 0.1; K 0.211 ± 0.098; G -0.445 ± 0.095; T -0.408 ± 0.088; P -0.349 ± 0.096; F -0.781 ± 0.1; N -0.283 ± 0.088; C -0.555 ± 0.096; M -0.5 ± 0.12; E -0.118 ± 0.15; R -0.66 ± 0.09; S -0.011 ± 0.076; Q -0.182 ± 0.12; V -0.57 ± 0.095; H -0.342 ± 0.091; W -0.901 ± 0.17; I -0.716 ± 0.09
Y8: M -0.292 ± 0.099; P 0.157 ± 0.08; T -0.122 ± 0.086; L -0.367 ± 0.082; W -0.371 ± 0.091; S 0.138 ± 0.075; Q -0.119 ± 0.1; R -0.34 ± 0.076
W10: N -0.615 ± 0.15; V -0.651 ± 0.087; R -0.863 ± 0.083; D -0.68 ± 0.13; P -0.741 ± 0.1; Q -0.613 ± 0.11; C -1.01 ± 0.14; M -0.918 ± 0.13; G -0.716 ± 0.078; T -0.869 ± 0.11; F -0.796 ± 0.14; I -0.596 ± 0.13; A -0.667 ± 0.087; L -0.844 ± 0.092; S -0.816 ± 0.096; Y -0.774 ± 0.15
